In assay [1] the target is T1, Vps35 with C-terminal TAP tag (S. cerevisiae, UniProt P34110 1-944).
T1 sequence: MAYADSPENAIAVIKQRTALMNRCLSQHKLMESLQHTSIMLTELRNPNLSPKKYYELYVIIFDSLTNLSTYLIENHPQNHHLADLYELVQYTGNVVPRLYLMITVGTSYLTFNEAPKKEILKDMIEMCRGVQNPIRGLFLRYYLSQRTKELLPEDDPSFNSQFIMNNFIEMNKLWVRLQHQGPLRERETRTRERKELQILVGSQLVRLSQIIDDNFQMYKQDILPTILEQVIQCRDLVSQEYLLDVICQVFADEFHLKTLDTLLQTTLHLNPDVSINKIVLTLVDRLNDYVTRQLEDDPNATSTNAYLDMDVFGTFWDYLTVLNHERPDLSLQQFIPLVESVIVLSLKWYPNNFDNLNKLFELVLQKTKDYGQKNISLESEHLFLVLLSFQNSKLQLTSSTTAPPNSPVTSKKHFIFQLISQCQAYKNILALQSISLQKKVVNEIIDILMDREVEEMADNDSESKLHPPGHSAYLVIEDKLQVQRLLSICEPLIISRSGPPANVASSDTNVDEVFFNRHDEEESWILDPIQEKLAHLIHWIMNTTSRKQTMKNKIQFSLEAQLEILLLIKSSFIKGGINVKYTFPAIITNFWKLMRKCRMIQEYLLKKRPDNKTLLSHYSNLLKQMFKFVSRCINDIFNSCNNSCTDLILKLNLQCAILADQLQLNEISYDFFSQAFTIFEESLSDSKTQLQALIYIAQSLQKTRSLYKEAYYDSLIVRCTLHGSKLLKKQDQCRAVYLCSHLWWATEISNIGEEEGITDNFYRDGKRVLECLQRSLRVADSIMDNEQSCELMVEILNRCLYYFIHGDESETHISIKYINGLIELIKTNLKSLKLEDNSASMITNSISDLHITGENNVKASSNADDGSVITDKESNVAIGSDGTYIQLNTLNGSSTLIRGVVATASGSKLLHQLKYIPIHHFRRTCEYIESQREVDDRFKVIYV
Description: tandem affinity purification.

The target of assay [2] is T2, CSC with GFP-tagged Vps29 (CSC-GFP) (S. cerevisiae, UniProt P34110;P40335;P38759). Description: pull-down.
Assay [3] deals with T2, CSC with GFP-tagged Vps29 (CSC-GFP). Description: recruitment to giant unilamellar vesicles.

B1: Vps29 (natural protein)
chain: MLLLALSDAHIPDRATDLPVKFKKLLSVPDKISQVALLGNSTKSYDFLKFVNQISNNITIVRGEFDNGHLPSTKKDKASDNSRPMEEIPMNSIIRQGALKIGCCSGYTVVPKNDPLSLLALARQLDVDILLWGGTHNVEAYTLEGKFFVNPGSCTGAFNTDWPIVFDVEDSDEAVTSEVDKPTKENQSEDDDAKGGSTGKEQPGSYTPKEGTAGERENENESNVKPENQFKEDEVDMSDSDINGSNSPSFCLLDIQGNTCTLYIYLYVNGEVKVDKVVYEKE
Regarding B1, the binding result in assay [1] is recorded as “binds”.

B2: N-terminal fragment of Vps5 (residues 1-280) (domain or fragment)
chain: MDYEDNLEAPVWDELNHEGDKTQSLVSNSIESIGQISTNEERKDNELLETTASFADKIDLDSAPEWKDPGLSVAGNPQLEEHDNSKADDLINSLAPEQDPIADLKNSTTQFIATRESGGALFTGNANSPLVFDDTIYDANTSPNTSKSISGRRSGKPRILFDSARAQRNSKRNHSLKAKRTTASDDTIKTPFTDPLKKAEKENEFVEEPLDDRNERRENNEGKFTASVEKNILEQVDRPLYNLPQTGANISSPAEVEENSEKFGKTKIGSKVPPTEKAVA
For the molecule B2, the binding result in assay [2] is “binds”.

B3: Vps26 (natural protein)
chain: MSIFFKPPIDIEILFDNEESRKHVDIATRSSNSSYKSMKESLPVYEDGESLGGIVTLRVRDSKKVDHLGIKVSVIGSIDMLKSHGSGNSSSKKVTSSTSSSSSNGSVDVRKNSVDQFLCQSYDLCPAGELQHSQSFPFLFRDLSKRYESYKGKNVDVAYYVKVTVMRKSTDISKIKRFWVYLYNSVTTAPNTLSANETKATTNDIAGGNYAADNASDNTQTKSTQGEAADVNQVLPISHSNNEPKPVRLDIGIENCLHIEFEYAKSQYSLKEVIVGRIYFLLTRLRIKHMELSLITRESSGLQTSNVMTDSTAIRYEIMDGSSVKGETIPIRLFLSGYDLTPNMSCNYFNVKNYLSLVIIDEDGRRYFKQSEITLYRTR
For B3, the binding result in assay [1] is listed as “binds”.

B4: SNX-BAR complex with GFP-tagged Vps17 (SNX-BAR-GFP) (complex)
chain 1: MDYEDNLEAPVWDELNHEGDKTQSLVSNSIESIGQISTNEERKDNELLETTASFADKIDLDSAPEWKDPGLSVAGNPQLEEHDNSKADDLINSLAPEQDPIADLKNSTTQFIATRESGGALFTGNANSPLVFDDTIYDANTSPNTSKSISGRRSGKPRILFDSARAQRNSKRNHSLKAKRTTASDDTIKTPFTDPLKKAEKENEFVEEPLDDRNERRENNEGKFTASVEKNILEQVDRPLYNLPQTGANISSPAEVEENSEKFGKTKIGSKVPPTEKAVAFKVEVKDPVKVGELTSIHVEYTVISESSLLELKYAQVSRRYRDFRWLYRQLQNNHWGKVIPPPPEKQSVGSFKENFIENRRFQMESMLKKICQDPVLQKDKDFLLFLTSDDFSSESKKRAFLTGSGAINDSNDLSEVRISEIQLLGAEDAAEVLKNGGIDAESHKGFMSISFSSLPKYNEADEFFIEKKQKIDELEDNLKKLSKSLEMVDTSRNTLAASTEEFSSMVETLASLNVSEPNSELLNNFADVHKSIKSSLERSSLQETLTMGVMLDDYIRSLASVKAIFNQRSKLGYFLVVIENDMNKKHSQLGKLGQNIHSEKFREMRKEFQTLERRYNLTKKQWQAVGDKIKDEFQGFSTDKIREFRNGMEISLEAAIESQKECIELWETFYQTNL
chain 2: MTSAVPYDPYDDLDNNPFAEPQEEDSEPAATTTDGSSSMSEERVGTEQTAASVQDNGTANNIQNGLGEEGNATRSKTSNEHNENQQPSQPSERVILPERSDEKKKYTLLAKVTGLERFGSATGKKENPTIIFDCSTNLPTFRKQQYKNVKKSYEEFHQLFKYLNVAIQESFVPTLPSAYTTFGINSEEDRMKVTRNFQLWFNRLSQDPLIIRNEEVAFFIESDFNTYTPINKSKSLASGLKRKTLKQLAPPYDEITELAEFRPLVKSIYVVSQSLQEKLLRVSRNRKMMVQEENAFGQDFVNLDEHNKLYRRYGKILTAVGDIDSIIATMDMATLYDGLEWIVRDAYAVKEALTNRHFIMRNLVQAQQNSKAKQEQARRFRSRRDINPMKIDEALRQLKAAAKNEQVLTLKLQRITSNMIIERKQWISWYEEWIRSSIKEFTLRKIEYERKKLTLLERVRSDIRKADENGGLSRLGRHAVSNNNSDTSQTLKGDSWTGESNRKSQIPINKIAHTEFDDELFTEDDGYNSQDSDTTSLNARHAASLLGMSTK
With B4, in assay [2], the binding result is listed as “binds”.

B5: SNX-BAR complex (Vps5-Vps17 heterodimer) (complex)
chain 1: B4 chain 1
chain 2: B4 chain 2
Regarding B5, the binding result in assay [3] is given as “binds”.

B6: fluorescently labeled Ypt7 without His tag (natural protein)
chain: MSSRKKNILKVIILGDSGVGKTSLMHRYVNDKYSQQYKATIGADFLTKEVTVDGDKVATMQVWDTAGQERFQSLGVAFYRGADCCVLVYDVTNASSFENIKSWRDEFLVHANVNSPETFPFVILGNKIDAEESKKIVSEKSAQELAKSLGDIPLFLTSAKNAINVDTAFEEIARSALQQNQADTEAFEDDYNDAINIRLDGENNSCSC
modifications: fluorescent label: ATTO (legend of Figure 5); DY-647 maleimide derivative (methods)
With B6, in assay [3], the binding result was “binds”.

B7: cytosolic domain of Vps10 (residues 1415-1579), His-tagged (domain or fragment)
chain: YDRGIRRNGGFARFGEIRLGDDGLIENNNTDRVVNNIVKSGFYVFSNIGSLLQHTKTNIAHAISKIRGRFGNRTGPSYSSLIHDQFLDEADDLLAGHDEDANDLSSFMDQGSNFEIEEDDVPTLEEEHTSYTDQPTTTDVPDTLPEGNEENIDRPDSTAPSNENQ
modifications: Cy5 label (Cyc-5 amine derivative) in Figures 3 and 4
For B7, the binding result in assay [3] is “binds”.
